Measured values taken from patent publication US9181340B2, “TEM8 antibodies, conjugates thereof, and their use” (The United States of America, as represented by the …, priority 2011, dated 2015).

B1: L2 Fab: fully human anti-TEM8 Fab from phage display; VH SEQ ID NO: 1, VL SEQ ID NO: 6; Fab chains SEQ ID NOs: 24, 25 (antibody)
heavy: QVQLKESGPALVKPTQTLTLTCTFSGFSLSTSGGGVSWIRQPPGKALEWLAHIYSNDDKSYSTSLKTRLTISKDTSKNQVVLTMTNMDPVDTATYYCARGGYFLDYWGQGTLVTVSSAKTTAPSVYPLAPVCGDTTGSSVTLGCLVKGYFPEPVTLTWNSGSLSSGVHTFPAVLQSDLYTLSSSVTVTSSTWPSQSITCNVAHPASSTKVDKKIEPRGPTIKPCPPCKCPAPNLLGGPSVFIFPPKIKDVLMISLSPIVTCVVVDVSEDDPDVQISWFVNNVEVHTAQTQTHREDYNSTLRVVSALPIQHQDWMSGKEFKCKVNNKDLPAPIERTISKPKGSVRAPQVYVLPPPEEEMTKKQVTLTCMVTDFMPEDIYVEWTNNGKTELNYKNTEPVLDSDGSYFMYSKLRVEKKNWVERNSYSCSVVHEGLHNHHTTKSFSRTPGK
light: DIELTQPPSVSVAPGQTARISCSGDNIGGIYVHWYQQKPGQAPVLVIYADSKRPSGIPERFSGSNSGNTATLTISGTQAEDEADYYCQSYDITSLVFGGGTKLTVLGQPKSTPTLTVFPPSSEELKENKATLVCLISNFSPSGVTVAWKANGTPITQGVDTSNPTKEGNKFMASSFLHLTSDQWRSHNSFTCQVTHEGDTVEKSLSPAECL
modifications: Antibody sequence
B2: 1D2 Fab: fully human anti-TEM8 Fab from phage display; VH SEQ ID NO: 5, VL SEQ ID NO: 10; Fab chains SEQ ID NOs: 32, 33 (antibody)
heavy: QVQLKESGPALVKPTQTLTLTCTFSGFSLSTSGMGVSWIRQPPGKALEWLAHINLDDDKYYSTSLKTRLTISKDTSKNQVVLTMTNMDPVDTATYYCARGGYGDMDVWGQGTLVTVSSASTKGPSVFPLAPSSKSTSGGTAALGCLVKDYFPEPVTVSWNSGALTSGVHTFPAVLQSSGLYSLSSVVTVPSSSLGTQTYICNVNHKPSNTKVDKKVEPKSEF
light: DIELTQPPSVSVAPGQTARISCSGDNIRSMFVHWYQQKPGQAPVLVIYADNKRPSGIPERFSGSNSGNTATLTISGTQAEDEADYYCSSYDYNAHLVVFGGGTKLTVLGQPKAAPSVTLFPPSSEELQANKATLVCLISDFYPGAVTVAWKADSSPVKAGVETTTPSKQSNNKYAASSYLSLTPEQWKSHRSYSCQVTHEGSTVEKTVAPTEA
modifications: Antibody sequence
B3: L3 Fab: fully human anti-TEM8 Fab from phage display; VH SEQ ID NO: 3, VL SEQ ID NO: 8; Fab chains SEQ ID NOs: 28, 29 (antibody)
heavy: QVQLQQSGPGLVKPSQTLSLTCAISGDSVSTNGAAWGWIRQSPGRGLEWLGRIYYRSKWYNDYAVSVKSRITINPDTSKNQFSLQLNSVTPEDTAVYYCARMPGGFLFDLWGQGTLVTVSSASTKGPSVFPLAPSSKSTSGGTAALGCLVKDYFPEPVTVSWNSGALTSGVHTFPAVLQSSGLYSLSSVVTVPSSSLGTQTYICNVNHKPSNTKVDKKVEPKSEF
light: DIELTQPPSVSVAPGQTARISCSGDNIRSYYAHWYQQKPGQAPVLVIYGDSKRPSGIPERFSGSNSGNTATLTISGTQAEDEADYYCSSYASHDYVFGGGTKLTVLGQPKAAPSVTLFPPSSEELQANKATLVCLISDFYPGAVTVAWKADSSPVKAGVETTTPSKQSNNKYAASSYLSLTPEQWKSHRSYSCQVTHEGSTVEKTVAPTEA
modifications: Antibody sequence
B4: L1 Fab: fully human anti-TEM8 Fab from phage display; VH SEQ ID NO: 2, VL SEQ ID NO: 7; Fab chains SEQ ID NOs: 26, 27 (antibody)
heavy: QVQLVESGGGLVQPGGSLRLSCAASGFTFNSYAMSWVRQAPGKGLEWVSLISSGSSTYYADSVKGRFTISRDNSKNTLYLQMNSLRAEDTAVYYCARAGFKFDNWGQGTLVTVSSASTKGPSVFPLAPSSKSTSGGTAALGCLVKDYFPEPVTVSWNSGALTSGVHTFPAVLQSSGLYSLSSVVTVPSSSLGTQTYICNVNHKPSNTKVDKKVEPKSEF
light: DIELTQPPSVSVAPGQTARISCSGDSIPNYSVSWYQQKPGQAPVLVIYADSNRPSGIPERFSGSNSGNTATLTISGTQAEDEADYYCQSYDNTSPDLVFGGGTKLTVLGQPKAAPSVTLFPPSSEELQANKATLVCLISDFYPGAVTVAWKADSSPVKAGVETTTPSKQSNNKYAASSYLSLTPEQWKSHRSYSCQVTHEGSTVEKTVAPTEA
modifications: Antibody sequence
B5: L5 Fab: fully human anti-TEM8 Fab from phage display; VH SEQ ID NO: 4, VL SEQ ID NO: 9; Fab chains SEQ ID NOs: 30, 31 (antibody)
heavy: QVQLVESGGGLVQPGGSLRLSCAASGFTFNSYGLSWVRQAPGKGLEWVSNISSNGSYTYYADSVKGRFTISRDNSKNTLYLQMNSLRAEDTAVYYCARAGYGLFDVWGQGTLVTVSSAKTTAPSVYPLAPVCGDTTGSSVTLGCLVKGYFPEPVTLTWNSGSLSSGVHTFPAVLQSDLYTLSSSVTVTSSTWPSQSITCNVAHPASSTKVDKKIEPRGPTIKPCPPCKCPAPNLLGGPSVFIFPPKIKDVLMISLSPIVTCVVVDVSEDDPDVQISWFVNNVEVHTAQTQTHREDYNSTLRVVSALPIQHQDWMSGKEFKCKVNNKDLPAPIERTISKPKGSVRAPQVYVLPPPEEEMTKKQVTLTCMVTDFMPEDIYVEWTNNGKTELNYKNTEPVLDSDGSYFMYSKLRVEKKNWVERNSYSCSVVHEGLHNHHTTKSFSRTPGK
light: DIELTQPPSVSVAPGQTARISCSGDKLREYYVHWYQQKPGQAPVLVIYGDNKRPSGIPERFSGSNSGNTATLTISGTQAEDEADYYCSSWAGSRSGTVFGGGTKLTVLGQPKSTPTLTVFPPSSEELKENKATLVCLISNFSPSGVTVAWKANGTPITQGVDTSNPTKEGNKFMASSFLHLTSDQWRSHNSFTCQVTHEGDTVEKSLSPAECL
modifications: Antibody sequence

Target: T1, mouse TEM8 (293/mTEM8 cells) (Mus musculus, UniProt Q9CZ52)
T1 construct: expressed in transfected cells
Test: Flow cytometry binding to 293/mTEM8 cells
Conditions: not given
Description: 293 cells were obtained from ATCC. 293 cells were cultured in DMEM supplemented with 10% FBS. 293 cells expressing mouse (293-mTEM8) or a flag-tagged human TEM8 (293/Flag-huTEM8) were generated by lipofectamine 2000 mediated stable transfection of 293 cells with a mTEM8/pcDNA3 or a Flag-huTEM8/pcDNA3 expression vector (Yang et al., Biochim Biophys Acta 1813(1):39-49, 2011). Because transfected cells expressed variable levels of TEM8 (see 293/mTEM8 cells in FIG. 8C) they were subsequently enriched for surface expression by florescence activated cell sorting (FACS) using anti-AF344 (293/mTEM8) (Yang et al., Biochim Biophys Acta 1813(1):39-49, 2011) or anti-FLAG antibodies (293/Flag-hTEM8) (M2 clone, Sigma).
(§1) Trypsinized cells were rinsed in cold PBS/0.5% BSA (PBS/BSA) and labeled with anti-TEM8 Fabs (human) or full IgG (human-mouse) primary antibodies in PBS/BSA containing 10% goat serum at 4° C. Cells were rinsed with PBS/BSA and incubated with FITC-conjugated goat anti-human Fab or anti-mouse IgG secondary antibodies (Jackson Immunoresearch, West Grove, Pa.), rinsed again, and analyzed on a FACScalibur flow cytometer (Becton Dickinson, Franklin Lakes, N.J.) using CellQuest™ Software.

T1 sequence (Q9CZ52 31-562): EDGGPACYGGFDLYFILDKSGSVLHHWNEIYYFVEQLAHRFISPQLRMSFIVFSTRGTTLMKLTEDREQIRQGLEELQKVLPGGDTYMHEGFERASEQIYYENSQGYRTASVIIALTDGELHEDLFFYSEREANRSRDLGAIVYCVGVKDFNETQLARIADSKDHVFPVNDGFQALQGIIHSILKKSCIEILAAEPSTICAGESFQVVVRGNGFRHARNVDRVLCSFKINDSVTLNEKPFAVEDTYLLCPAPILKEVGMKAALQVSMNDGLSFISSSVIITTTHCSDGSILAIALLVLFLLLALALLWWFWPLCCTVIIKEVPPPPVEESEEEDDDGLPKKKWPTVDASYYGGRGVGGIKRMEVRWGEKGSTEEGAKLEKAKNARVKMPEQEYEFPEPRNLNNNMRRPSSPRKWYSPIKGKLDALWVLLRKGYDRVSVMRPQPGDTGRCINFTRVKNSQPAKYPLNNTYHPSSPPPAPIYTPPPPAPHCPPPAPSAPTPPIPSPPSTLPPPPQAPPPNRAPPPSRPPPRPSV

Row | Molecule | binding to cells expressing mouse TEM8
1 | B1 | react
2 | B2 | react
3 | B3 | react
4 | B4 | react
5 | B5 | react

Tested on: HCT-116 tumors
Test: not given
Conditions: mouse, in vivo

Row | Molecule | body weight in HCT116 tumor-bearing mice
6 | O=c1[nH]cc(F)c(=O)[nH]1 [Antibody 5-FU, 5-fluorouracil] | small, albeit non-significant, reduction in body weight
7 | CCc1c2c(nc3ccc(OC(=O)N4CCC(N5CCCCC5)CC4)cc13)-c1cc3c(c(=O)n1C2)COC(=O)[C@]3(O)CC [IRT, irinotecan] | small, albeit non-significant, reduction in body weight

Target: T2, human TEM8 (293/Flag-hTEM8 cells) (Homo sapiens, UniProt Q9H6X2)
T2 construct: expressed in transfected cells
Test: Flow cytometry / immunofluorescence binding to 293/Flag-hTEM8 cells
Conditions: immunofluorescence staining and flow cytometry
Description: 293 cells were obtained from ATCC. 293 cells were cultured in DMEM supplemented with 10% FBS. 293 cells expressing mouse (293-mTEM8) or a flag-tagged human TEM8 (293/Flag-huTEM8) were generated by lipofectamine 2000 mediated stable transfection of 293 cells with a mTEM8/pcDNA3 or a Flag-huTEM8/pcDNA3 expression vector (Yang et al., Biochim Biophys Acta 1813(1):39-49, 2011).
as §1

T2 sequence (Q9H6X2 33-564): as the sequence (Q9CZ52 31-562) above, with R40K, S104R, A241S, V297I, V327A, S458N, T468A, P471T, A493P counted along it

Row | Molecule | binding to cells expressing human TEM8
8 | B1 | react
9 | B2 | react
10 | B3 | react
11 | B4 | react
12 | B5 | react

Target: T3, purified recombinant hTEM8(ED)-Fc fusion protein (Homo sapiens, UniProt Q9H6X2)
T3 sequence (Q9H6X2 33-321): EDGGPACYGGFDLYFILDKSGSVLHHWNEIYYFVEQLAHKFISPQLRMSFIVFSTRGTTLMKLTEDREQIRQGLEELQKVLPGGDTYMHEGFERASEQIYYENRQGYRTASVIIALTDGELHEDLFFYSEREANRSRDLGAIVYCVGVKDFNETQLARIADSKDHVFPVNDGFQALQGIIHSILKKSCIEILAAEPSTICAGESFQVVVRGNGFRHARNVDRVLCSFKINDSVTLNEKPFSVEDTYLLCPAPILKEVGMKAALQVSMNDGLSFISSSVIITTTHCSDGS
Test: ELISA of Fabs on TEM8(ED)-Fc
Conditions: not given

Row | Molecule | reactivity with TEM8 protein in ELISA
13 | B1 | react
14 | B2 | react
15 | B3 | react
16 | B4 | react
17 | B5 | react

Target: TEM8 (CHO-TEM8 cells), binding of Anthrax PA (Homo sapiens, UniProt Q9H6X2)
Test: not given
Conditions: not given

Row | Molecule | blocking of PA-FITC binding to CHO-TEM8 cells
18 | B1 | neutralize binding of PA to its cell surface receptor, TEM8
19 | B3 | neutralize binding of PA to its cell surface receptor, TEM8
20 | B4 | neutralize binding of PA to its cell surface receptor, TEM8
21 | B5 | neutralize binding of PA to its cell surface receptor, TEM8
